Test results published in paper PMC7205312.

Experiments:
Assay in all cases: co-IP (IP anti-Myc beads, IB anti-HA), band intensity by ImageJ
Conditions in all cases: chain shown with the change; NB-ARC-HA co-expressed with NB-ARC-Myc; parent: 1.00
[1] = target: T1, Tm-2^2 NB-ARC (D481V, L233A), Q71BG9
T1 chain: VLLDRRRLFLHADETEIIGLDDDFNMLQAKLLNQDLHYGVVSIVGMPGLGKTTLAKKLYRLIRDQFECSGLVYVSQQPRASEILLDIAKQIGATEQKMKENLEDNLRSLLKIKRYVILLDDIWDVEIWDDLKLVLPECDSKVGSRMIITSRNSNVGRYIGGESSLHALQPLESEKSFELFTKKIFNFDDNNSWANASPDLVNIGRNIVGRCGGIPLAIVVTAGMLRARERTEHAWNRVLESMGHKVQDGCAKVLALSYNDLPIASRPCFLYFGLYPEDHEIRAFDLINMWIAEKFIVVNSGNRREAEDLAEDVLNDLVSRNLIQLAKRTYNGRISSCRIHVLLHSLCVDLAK

[2] = target: T2, Tm-2^2 NB-ARC (D481V, L242A), Q71BG9
T2 chain: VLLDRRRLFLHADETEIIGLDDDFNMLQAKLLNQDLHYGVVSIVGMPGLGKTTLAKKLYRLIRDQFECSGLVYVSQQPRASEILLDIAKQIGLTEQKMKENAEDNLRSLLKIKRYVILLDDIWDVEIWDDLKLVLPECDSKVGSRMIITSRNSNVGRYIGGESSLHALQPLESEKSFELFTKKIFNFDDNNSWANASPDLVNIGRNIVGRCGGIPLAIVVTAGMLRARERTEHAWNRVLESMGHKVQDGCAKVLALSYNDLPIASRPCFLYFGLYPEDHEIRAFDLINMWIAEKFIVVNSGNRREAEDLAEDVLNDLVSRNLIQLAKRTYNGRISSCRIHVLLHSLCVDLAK

[3] = target: T3, Tm-2^2 NB-ARC (D481V, L246A), Q71BG9
T3 chain: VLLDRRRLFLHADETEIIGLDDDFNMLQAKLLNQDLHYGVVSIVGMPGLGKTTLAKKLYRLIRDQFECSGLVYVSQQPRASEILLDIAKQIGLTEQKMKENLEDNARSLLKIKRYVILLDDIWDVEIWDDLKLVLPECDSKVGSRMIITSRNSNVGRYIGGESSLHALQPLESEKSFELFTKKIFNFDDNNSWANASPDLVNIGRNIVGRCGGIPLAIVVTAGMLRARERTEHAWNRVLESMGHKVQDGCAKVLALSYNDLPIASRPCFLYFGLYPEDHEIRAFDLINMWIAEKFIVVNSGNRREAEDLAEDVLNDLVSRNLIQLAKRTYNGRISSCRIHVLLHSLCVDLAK

B1: Tm-2^2 NB-ARC (D481V), Q71BG9 L233A; D481V (protein)
chain: VLLDRRRLFLHADETEIIGLDDDFNMLQAKLLNQDLHYGVVSIVGMPGLGKTTLAKKLYRLIRDQFECSGLVYVSQQPRASEILLDIAKQIGATEQKMKENLEDNLRSLLKIKRYVILLDDIWDVEIWDDLKLVLPECDSKVGSRMIITSRNSNVGRYIGGESSLHALQPLESEKSFELFTKKIFNFDDNNSWANASPDLVNIGRNIVGRCGGIPLAIVVTAGMLRARERTEHAWNRVLESMGHKVQDGCAKVLALSYNDLPIASRPCFLYFGLYPEDHEIRAFDLINMWIAEKFIVVNSGNRREAEDLAEDVLNDLVSRNLIQLAKRTYNGRISSCRIHVLLHSLCVDLAK
Question: How did the ratio to parent [1] turn out when B1 was run?
Answer: 0.64

B2: Tm-2^2 NB-ARC (D481V), Q71BG9 L242A; D481V (protein)
chain: VLLDRRRLFLHADETEIIGLDDDFNMLQAKLLNQDLHYGVVSIVGMPGLGKTTLAKKLYRLIRDQFECSGLVYVSQQPRASEILLDIAKQIGLTEQKMKENAEDNLRSLLKIKRYVILLDDIWDVEIWDDLKLVLPECDSKVGSRMIITSRNSNVGRYIGGESSLHALQPLESEKSFELFTKKIFNFDDNNSWANASPDLVNIGRNIVGRCGGIPLAIVVTAGMLRARERTEHAWNRVLESMGHKVQDGCAKVLALSYNDLPIASRPCFLYFGLYPEDHEIRAFDLINMWIAEKFIVVNSGNRREAEDLAEDVLNDLVSRNLIQLAKRTYNGRISSCRIHVLLHSLCVDLAK
Question: For B2, which ratio to parent [2] is on record?
Answer: 0.62

B3: Tm-2^2 NB-ARC (D481V), Q71BG9 L246A; D481V (protein)
chain: VLLDRRRLFLHADETEIIGLDDDFNMLQAKLLNQDLHYGVVSIVGMPGLGKTTLAKKLYRLIRDQFECSGLVYVSQQPRASEILLDIAKQIGLTEQKMKENLEDNARSLLKIKRYVILLDDIWDVEIWDDLKLVLPECDSKVGSRMIITSRNSNVGRYIGGESSLHALQPLESEKSFELFTKKIFNFDDNNSWANASPDLVNIGRNIVGRCGGIPLAIVVTAGMLRARERTEHAWNRVLESMGHKVQDGCAKVLALSYNDLPIASRPCFLYFGLYPEDHEIRAFDLINMWIAEKFIVVNSGNRREAEDLAEDVLNDLVSRNLIQLAKRTYNGRISSCRIHVLLHSLCVDLAK
Question: With B3 as the binder, how does the ratio to parent [3] read?
Answer: 0.45
